Reference: the DeepSol protein solubility set

Test: soluble on expression in E. coli; label from the status in PepcDB or PDB records

Row | Sequence | soluble on expression in E. coli
1 | MSQMAQSLRSQFATDKQVLQKFLNLDQKGMYQALYIWIDGSGENIRAKTRTFDFEPTDPEKLPIWNFDGSSTGQAEGADSDVYLKPVAIYPDPFRQGKNKLVMCETYDNKKKPTATNYRQRCKEVMEKAADQHPWFGMEQEYTLLDIDGHPFGWPKNGFPGPQGPYYCGVGANKVYGRDIVEAHYRACLYAGIQISGTNAEVMPGQWEFQVGPCEGIQMGDQLWVARYLLQRVAEEFGVIASFDCKPIKGDWNGAGCHTNFSTDKMRNPGGIDEIMSAINKLSLVHPQHIAYYDPHGGKDNERRLTGLHETASIDKFSYGVASRASSIRIPRSTDDDGYGYFEDRRPSSNCDPYTVTGALVRTVCLEGAERKLSMMYVPSQAPNITKH | not soluble
2 | MSQESSVLSESQEQLANNPKIEDTSPPSANSRDNSKPVLPWDYKNKAIEIKSFSGYKVNFTGWIRRDVREERQRGSEFTASDVKGSDDKATRKKEPADEDPEVKQLEKEGEDGLDS | soluble
3 | MRKMMQNHQNTRFYFSASLILFNDKEMGKRSNYHHLVAFGGFFKALPDDGDLLTRFVTVEKLKKLPHCKFPFFPVKKPSLSPKMQPSYDADDFMRRGFFGSFIGFRKRSSSKPGELYAKNVTYSQIFSRHLID | soluble
4 | MGSDKIHHHHHHMENRKHTSLKDLAQALGVSIPTVSRALKDSPEISRELCAKAKKLAKEMNYRPNPFAMSLRKNAPRIIGVIVPDIVTHFFASILNGIENMAIDNGYFVIITTSHESFEHEKRNIENLVNMRVEGIIACLSQETTDFSHFAALKEINMPLILFDRVCLTDQFSSVIADGAQSAQMATQHLLDNGSKRVAFIGGANHLDIVKRRKHGYLEALRDNRIPIEKELVVCRKIDYEEGQIATETLLSLPQPPDAILAMNDTLAFAAMEVIKRHGLRIPDDIAIIGYTDEQHANYVEPKLSAVSHQTYKMGETACQLLIDQIKGDRTVKQVVIPTHLQIRESSIKENNKKNAVST | not soluble
5 | MSEKTFLVEIGTEELPPKALRSLAESFAANFTAELDNAGLAHGTVQWFAAPRRLALKVANLAEAQPDREIEKRGPAIAQAFDAEGKPSKAAEGWARGCGITVDQAERLTTDKGEWLLYRAHVKGESTEALLPNMVATSLAKLPIPKLMRWGASDVHFVRPVHTVTLLLGDKVIPATILGIQSDRVIRGHRFMGEPEFTIDNADQYPEILRERGKVIADYEERKAKIKADAEEAARKIGGNADLSESLLEEVASLVEWPVVLTAKFEEKFLAVPAEALVYTMKGDQKYFPVYANDGKLLPNFIFVANIESKDPQQIISGNEKVVRPRLADAEFFFNTDRKKRLEDNLPRLQTVLFQQQLGTLRDKTDRIQALAGWIAEQIGADVNHATRAGLLSKCDLMTNMVFEFTDTQGVMGMHYARHDGEAEDVAVALNEQYQPRFAGDDLPSNPVACALAIADKMDTLAGIFGIGQHPKGDKDPFALRRAALGVLRIIVEKNLNLDLQTLTEEAVRLYGDKLTNANVVDDVIDFMLGRFRAWYQDEGYTVDTIQAVLARRPTRPADFDARMKAVSHFRTLDAAAALAAANKRVSNILAKSDEVLSDRVNASTLKEPEEIKLAMQVVVLRDKLEPYFTEGRYQDALVELAELREPVDAFFDKVMVMVDDKELRINRLTMLEKLRELFLRVADISLLQ | soluble
6 | MGSDKIHHHHHHMTETTLPPLIQQMLQPGFYPHEVTEPIQLIQTHVSSVLLTGEYAYKLKKPVNFGFLDFSTLEKRQHFCQEELRLNQRGAAELYLEVLPISLVGEQYTLGGTGEAVEYVLKMRQFPQDGLFSELFAQGKLTESHLEELGKVVAQYHAKTETNDYIRSFGEVPQVQAAFDENYQQTEKYIGGPQTQLQFDETKAYTERFFAEKQELFQRRIQNNYIRECHGDLHLRNICLWQDKILLFDCIEFNEPFRFVDVMFDVAYAVMDLDAQQRPDLSNAYLNTYLEQTGDWEGLEVLPIYLNRQSYVRAKVTSFLLDDPSVPATVKEEATKTASTYYKLAWEYTKPKQGKLILMSGLSGSGKSTTAKYLARQLDAIQIRSDAVRKHLGGISLWERGGDDLYTPEMTQKTYARLLNLGTILANQGYTVILDAKYDKQNLRQEAIAQAEKHHLPLQIIHCTAPIEVIQERLIKRTGDIADATVDLLSSQLQQTEPFTDQEKPYVQTWDTTQPPHVIGNR | not soluble
7 | METNALDVNKQSWDQAAPRFFARNPLPEYGPLAPSEEELHLFGDVDRLKVLEIGCGSGHSLKYLDEKQAGELWGIDLSTKQIEAAQTVLKDSKAPVTLFESPMEVNPGLPTDYFDIVFSIYALGWTTNLTKTLENVYRYLKPGGSFIFSWEHPMYNRVRQHQHGLTVDKSYHEEGAYAHEAWSSPAIMQQYRLSTYLNHLIDHGFKVERVIEDVCLADAQKHTNGWYGYEKAQMIPTTLIIKCLKQLEHHHHHH | not soluble
8 | MGSDKIHHHHHHATEADVEAAFNPYKNGFPSFPGLAAGTVVNKGNVEQFKDALDPGLYQIVKNGWDEIKVGPTTQFAMDKFYVEATKKNLNTAKLGAQNGEITGFVAGRPFPEEPKADDPRAGEKLAWNFKYGLNWGDNAAIYPFYWKYRNMTSGQVERTLKFNFHFLNFKHRVQHAPVPEVTPNPSELFRGIYVKVLEPQDLKNTQLLIQRYEDDLKFDDAYLYLGFQRRVRRLATGQTTDAFLGADLMIEDFEGYNGRISDMKWTFKGTKNILMPYYNHNELQLTDEFKDPSGYKFVDFGGQGGCFPKITWQLRKVYVLEAAPVLASHPVSKRVFHVDAQVFNINRTLIYDRKGELWKTFTIGKSHPDHHLPVNKGTGIAIDDSFSMIDVQAKHCTTGQFKGQVDPKLNPPSLFQVQNMRGGD | not soluble
9 | IEETGTVIIAGIGRFGQIVNRLLVSNGVTTVVLDHQANQVDNMRQIGTRAYFGDATRPDMLHTAGIEHAAALVVAIDNQESSVELVKYVKHTYPKVKIIARAFDRGHGYLLRQAGADVIESETYHSALEMGGHAMKALGI | not soluble
10 | MCELLGMSANVPTDICFSFTGLVQRGGGTGPHKDGWGITFYEGKGCRTFKDPQPSFNSPIAKLVQDYPIKSCSVVAHIRQANRGEVALENTHPFTRELWGRNWTYAHNGQLTGYKSLETGNFRPVGETDSEKAFCWLLHKLTQRYPRTPGNMAAVFKYIASLADELRAKGVFNMLLSDGRYVMAYCSTNLHWITRRAPFGVATLLDQDVEIDFSSQTTPNDVVTVIATQPLTGNETWQKIMPGEWRLFCLGERVV | not soluble
11 | MSPVVSEASPERWDDETDVLVIGSGAGGLSAALFAAQAGLRVLICEKLAYVGGTTATSGGGIWVPGTKAGLAAGDTLEAARTYLKALLGDFYQEEVIDTYLATGGKVIDFLNENTEVKFDLSSWPDYRSSLPGGATRGRSLFPQPFDGKKLGRNFSLLHPPLHRLMVLGGLMLGPEEVHDFLRPFSSPRALMRVLRKLLRYGMDRIRYARGTDLRSGNALAARLLYSVDKLGCRILTQADLESLAIDHDRVIGATVVVGGVPKRIRASKAVLLATGGFAHNQEMLRRYGPATPHRFSLCNPACTGAGIQAALDAGASVDRELSSVGFWTPASASREKNGADTPVIYGYLDRGRPGVIAVNEQGERFVNEANSYHDIVTAIFANGGADGKPFYFITDREFVRRHGLGLIRPWPWNRSLRPWIRRGYITVASTLDKLGPKIGIDPGALAAAVQRHNQSARTGQDPDFHKGASAYNRMFGHNMTWPNPNLAPIETPPFVALRIHPATIGTAMGLKTSASGQALNAAGQPISGLYACGNNQASPFRGFYPGGGSTLGPAIVGAYLAVQSLSKPLEHHHHHH | soluble
12 | MTEGKRLQQMELPQMKSIWIDEDQEMEKLYGFQVRQRFMNGPSTDSDEDADEDLGIVLVDSKKLALPNKNNIKLPPLPNYMTINPNINSNHKSLTNKKKNFLGMFKKKDLLSRRHGSAKTAKQSSISTPFDFHHISHANGKREDNPLESHEEKHDVESLVKFTSLAPQPRPDSNVSSKYSNVVMNDSSRIVSSSTIATTMDSHHDGNETNNTPNGNKQLDSPTDLEMTLEDLRNYTFPSVLGDSVSEKTNPSSPSVSSFSGKFKPRELSALHTPELGNCFNVDQSLNSPGNRISVDDVLKFYYQCSETSTPRNT | soluble
13 | MGSDKIHHHHHHNLKDSDRIFTNLYGRHDYRLKGAMARGDWHKTKEIILKGSDWILGELKTSGLRGRGGAGFPSGMKWGFMNKPFDGRPKYLVVNADEGEPGTCKDREIMRHDPHKLIEGCLIGGVAMGARAAYIYIRGEFYNEACILQEAINEAYKAGYLGKDCLGTGYNFDVFVHRGAGAYICGEETALIESLEGKQGKPRLKPPFPADIGLFGCPTTVTNVETVAVAPTICRRGGDWFASFGRERNRGTKLFCISGQVNNPCTVEEEMSVPLKDLIERHCGGVIGGWDNLLAIIPGGSSVPLMPKN | not soluble
14 | MGSDKIHHHHHHMCRLLAYLGSPVSLEYLLYKPEHSLIVQSYQPREMTSGVVNADGFGVGWYHSQKDTEPFTYKNTLPIWNDINLPSLSRYVESKCILAYVRSATAGQALDFANCQPFHYKQSLFIHNGYIENFRKTLHRKLRSTLTPDFYEHINGSTDSEHIFALLLSQIQSNKHRSVESVLRNTLLMLWEMAKRHQVNASANVVFSDGHRLIASRFASSSSPPSLYWLKDDLTFPNSVIIASEPLFAGNWTACPENSIISVGEDCDIKIESI | not soluble
15 | MGSDKIHHHHHHMTGRRCERTTSPGTGGRLRAEPADFQVQEVPAYLPGGSGEYLYLHVEKTRHTTAHVVRELCAQLGVRDRDVGVAGLKDRHAVTTQWLSLPAKVEPRMGDFSLPGVRILETSRHTNKLGMGHLHGNRFVVRVRGAAGMAEQAGETLATLAQGGVPNYFGPQRFGLGGLNAEEGLRVLRGESELRDPRVRRFLTSSVQSAIFNALVSLRLEREVFDRLLTGDMAKKHDTGGVFLVEDAGAETPRAQRGEVSATGTLFGRKVKPLTADAGALEAEALALFGLSPQVFASRKGDRRLIRVFPAEAEVRPEDDGYVLAFTLPKGSFATSVLREVMKTEVDAPGAGPDTTDEGEAGDGE | not soluble
16 | MWSFRAWRRRRLLARHPVAEELWQRVRRHLPILDGLDADEDRRLRERAVLFLADKHLTALAGVDLDDFGRLLLAAQAQLPLLHLPELNWYQGFHELVLYPDDFVSPQKHRDASGVVHEFDDERSGETSLQGPVVLAWPGVVGGGGWDAYNLVIHELAHKLDMLNGDANGLPPLHAGMRIGDWASAMQAAYDEMNALLDRDPDAQTAIDPYAAEDPAEFFAVTSEYFFTAPDLLHEAYPAVYRQLQLFYRQDPLQRLRRLQAEHPDYREAAGDTTNG | not soluble
17 | MVFFSVVVPTYNRRPILEKCLRALEQQQISAETAIAGYEVVVVDDGSTDGTVDWLKAQASEFPHVRLFEQDHQGPARARNLGVQQAQGDTIIFIDSDLVVTPPFLQAHATGLEKGRQRLGSDRCFTYGAVINTCNFDNPTAEPFKVTDFSNAYFATGNVAIARHWLETAGLFDTAFQLYGWEDLELGVRLKNLGLKLIRCPEAVGYHWHPPFSLEQIPKLIDQESQRGRMGVLFYQKHPTWEVRLMIQMTWLHRLLWGTLSLGGFLNERTLRPLLAWLLKRDRPQLALEIARIFLNWNNVRSVYAAYRESQGLASSLEHHHHHH | soluble
